The DeepSol protein solubility set

test: soluble on expression in E. coli; label from the status in PepcDB or PDB records

| Sequence | soluble on expression in E. coli |
| --- | --- |
| MKKELLTRFMEKRIVELKKEQRNGTAHVYQSTLNRLKNFMNGREITFSQLTPEWLALFEQKLLADQLKWNTISTYMRMLRSVYNQALERGVATYVPRLFNKVHTGIDCPVKRAVSPEVICRLMTDRKPLPGKLAFSRDLFVLLFLLRGMPFVDLAFLRRCDLQGNVITYHRRKTSRKLTVVVGKEAMEIIQKYMYAIPDSPYLFPIIQNPGKDEYGQYARMLRLQNYRLTQVANILGIRDRLSTYTARHTWATTALRQNYNSSLICDAMGHSSVKVTETYFQPYRDDEVNRMNSSLITYILSKKKRGTDKKIRS | not soluble |
| MRVAVTGTPGTGKTTATGRLDTALDVAHLNDLVGTEGLYDGVDADRGSKIVDVDAVRDHFAGREDVLVESHLAHRLDDLDAVVVLRCAPETLATRLQDRGDSPEKAAENADSEALAIILSEAVRGHGADAVYEIDTTDRSPDAVAAAIQAVLDGDREPSAGTVDYTDYV | not soluble |
| MSKLDLGRVDLLSMLGNSSSAGVDTAKGVIPFSTSGATWAVPRLSEDGITSHFLRRRGYVTMTQGGSRDQNAAVRKILSLIIAYDIQTQACFFISNEESMRITMAETMGVKDRPNARTNSWAEVSDSDINRGIAKALKEGNLTLDENQKDGFMKLVHAFVADILAQSGHYKPVTSVTYFSAPIDMESDYLDPFSIAIIRDVLDDSPFSELRYDARAMSELEDRDVPITRFSRVMAQMGNAMVRNIMVLNEAAQRKLRGLAVVGEIVHGRVRAPVRYLNDSFIQTLRSNINFHLLTRTTPERWAQSWIQAFGSLKGWVDAINGIADATTEEEKKKLAMQTSMDLELLSDLTPLIRDAATSVEKFVTFAPLSFYQGLGSVTQIRALDSSTNLAAVIVRYAAKEINLIPAYQSFQVPTVDVGVKKTAIMDQRLSLQLPEFSEDQFFGMLEQRMQNMSDSEVAELVDRIAKGETPFGDVVKQLPGTSTLLVTNGYYMGGLLTNEDKIIPGDASVPALLYMQAASFASSVRFPPGEYPVFHHESSNGDVRLTDQVSADAQLSHSAVETANPLNFLVACNVSVHTPSIAIDIIEPMPDLTRRGTTEYVHKGEIKVAAIPSLPPKSADRKAQVSRETAKFERVLYKARKGGAQVAAPIDLESLFGIAVNLAVPTVKHVYSPDSKTKLALDIIKGLESEGDKAAATRLLMTLARAYTGTYSSLGLRRRDEITGIAAQPSDVAMQEFALQSGVQTLKAVAKHTGIMEVATIEMVEEKVRSLDDNRFYEIAAEVVLRALKGM | not soluble |
| MKVDVEVLRNFEERLNPAKPENIKIIGYGEISTVFELPELPGIALKRIPNFKSVEQVKRYIEVYFEYIELLEGAGLRVPDSDATFVERRDGKTVLYIAQKMVGNVGNKVIQTAKADEAEEVFGRVLAEMKKVWDFNAERREEGLEIGIDGQISNWAIMEEIYYFDTSTPMIRKNGIHQLDTEVFLQACPPGIRILLKKIFLQDILDRYFDFRKVVVDMIANLYKEGREDLIPIAINLANEFFKLNGYDFEAITAKEVEKYYKEDAFIWSLYLNLRKVHRFILTKALFGRYEYILPGKIRR | not soluble |
| GQDQRRRRIVSRRIYKRIMLKPHYLSIPEAQLEAMNNIQLNPIMKLINNNSDSPVMLSSPPDIFTAGKDMFDCFFRDIEAARHHVHIQFYVIEDDHLGSRLSDLLIRKVQEGVKVRVIFDHVGSWATGRGYWKRLRRAGVEAYPFMPVFFPILSSRVNYRNHRKVAVIDGKIGYLGGMNVADRYYSGNRLGLWRDTHFRMMGNVVAGLQSSFLLDWYVVSRRVINLSGYYPDLPIPVSDEGVKIQLVRSGPVGQWRTIEQATIYCIERACEHVYIETPYFLPTEGLN | not soluble |
| MKYKIFASTTPQTEPVLQKLKQVLKGCEAVEKGFDYLFVLGGDGFFVSTVANYNCHNCRVVGINTGHLGFYTSFNEKDLDDNFLQKLQQCHFQRISLLEVSVNGQQHLVLNELAVYTNTAYPINIFIDGEAWEFYRGSGLLIGPRTGSTALAKSAKGAVIFPGIDVLQIIEMNPLLHPNQVTIQSPIILPKETQVEFVVKKAFNPQQFPTFYCDGRKLELPNADTTLALKLVQSTPMFNISLKTQDFINKLKSTFIKQSLEHHHHHH | not soluble |
| MILETISKQLQEQQESLNKDYRKKLESIKERSDRLESDLKTQFDAQLEKWEQNFKGYEQQLTDILNEREQLDLDQQRLNAQKQALENHMKQREE | not soluble |
| MSLSGKIRVDIPPCLANSLIMPRLPTFLHQYPGIALELCSSDRQVDLLREDFDCVVRTEPLHAPGILTRPLGKLRRVNCASPQYLARFGYPENLDDLASHAMVHYSLTPGVSSPGFAFETPHGMQWVKTGGMLTVNSTETWHTACLAGLGIIQTPRIAVREALRAGTLIEILPQYRAAPLPVTLHYPHRRNLSRRVHLFMVWLTETIKEAAEGHHHHHH | not soluble |
| MRNVMKATTLESKFPLLAVENGCIVSKEADVTVAFRVELPELFSVTGSEYEAVHSAWHKAVKVLPEYSIVHKQDFFIEEKYRPETDRDDLSFLSRSFERHFNERPFLNHFCYLFLTKTTKARSRQESTFSTLCKGRLVPKEIEDRETVTRFLEAVGQFEKIMNDSGFVTLRRLTTDEITGTETAAGIVEKYLSLSQHDTTVLKDIQLNPEEMRIGDDILCLHTLSDTEDLPGKVATDSRYERLSTDRSDCRLSFAAPVGLLLDCNHCYNQYIFIDDHGENLKRFEQTARNMHSLSRYSRSNQINKAWIEEYLNEAHSKGLTSVRCHCNVMAWSDDREELRRIKNEVGSQLALMECKPRHNTVDVPTLFWAAIPGNEGDFPFEESFYTFIPQALCFFTEETNYKDSLSPFGIKMADRMTGRPLHLDISDLPMKKGVISNRNKFVLGPSGSGKSFFMNHLVRQYYEQNSHIVLIDTGNSYQGLCELIHRKTKGEDGIYYTYTEEKPISFNPFFTDDYKFSVEKKDSIKTLLLALWKGEDEKVTKTESGELGSAVSAYIRRIQQNRDIAPSFDTFYEYMLNDYRKELAARDIKVSREDFNIDNFLTTLRQYYKGGRYDFLLNSNENIDLLHKRFIVFEIDAVKDNAELFPVVTIIIMEAFINKLRRLKGVRKMLICEEAWKALSSPSMSEYLKYLYKTVRKYFGEAIVVTQEVDDIISSPIVKEAIITNSDCKILLDQKKYMNKFDGIQSMLGLTDKEKSQILSINLANHPGRKYKEVWIGLNGVQSAVYATEVSAAEYLTYTTEESEKTEVFALAEELGGDLELAIKRLAETKYK | not soluble |
| STPTSQALYSDFSPPEGLEELLSAPPPDLVAQRHHGWNPKDCSENIDVKEGGLCFERRPVAQSTDGVRGKRGYSRGLHAWEISWPLEQRGTHAVVGVATALAPLQADHYAALLGSNSESWGWDIGRGKLYHQSKGLEAPQYPAGPQGEQLVVPERLLVVLDMEEGTLGYSIGGTYLGPAFRGLKGRTLYPSVSAVWGQCQVRIRYMGERRVEE | soluble |
| MDMNFFKHDAFSATTMMKAIENYEFQPGLISSLNLFEEVETSTTVVGIERRDNTLSLIQTSERGAPLVEGDRDGRNLRFFKTTRIAKSDTVKSEEIQNRREFGTEDQLETAMKYIARKQKKLISEIELTWENMQLGAVQGVVLDADGSVIVDWYKEWEIAPPKPIDFKLNNETTNVADHVDQVIMKMIEASKGAFSDRSRIIGLCGNEFFSKLKNHKTIRETYLNTALAQTLNSAGGVATPSAIGSGSFGSFDFAGVTFINYRSIHNYNVSAKAGTKRAIGIKPDECQFLPANAPGVFQKTFAPGESLDFANTVGKPLYTMLIVDNDRNAWVKPEVYSYPLYICTRPEMLFKAVSGGK | not soluble |
| MVYKNILVGLDGSSQADNAFKVACGLANALSADLHPIWIVNRDRGMDSSFGVNEDFYRDQYHQVQDKLVSYVEDAKKAGLKVTGEALVGNIKLVLANEYPKEHGIDLIVLGNTGLNTVEKLVVGSHTSYVIRNSACDVLVVK | not soluble |
| MGSDKIHHHHHHMLIISPKYLNGKIEIEKGERVGLVGKNGSGKTTLILSALCLDQTTSNVTVDDLDFCKEKDYSKISAVLQDVSSQILASTLKDEIELMKRFHSVDDKIARNLMGHYYEVEFNKLSDGYKKRYAIASVLASNPEYILLDEPFANLDDKGVKSVSTIVPKNSLIAEHRIEELRKLVDRVYMIRNNKEINEISKEKLFDIEFLRKEGLRGFSLPKINSELGNEILNVNIDNFTIKIREGEILCLLGRNGSGKTTILRKLSKKIFVIFQEVDLQFFYFTVREIVRSKRVLSLFKLENLADKSPYALSFGQKMRILIASAFSSDSRVIGLDEPSVGMDGEALLSFYEMVKMLKEQKRGLILATHDKDIISLCDTRIVID | not soluble |
| MSLGAMCFYHYWFLGKQLLEKPAEILLENKEINMPFLFSWANEPWTRAWDGSHRNVLMPQSYGTEADWEKHFNYLKPFFEDERYLKHDGKPIFIIYRTANFALCNEWISCWRELSKNTSFKDIHFVSSYTSFENDPRKLDFDAHLYFEPMCTVGHNLGYFNKKIKKINARLKRVINPKVWTTYVENTLQYDYLWEKILKKKINKTQYPGAFVDWDNSARKKSRALVIHGGSPKKFGLYLDKLYKRSIENNCPFLFINAWNEWAEGTYLEPDEKNKYSYLEELKKVIEKYEVEGHHHHHH | not soluble |
| MQNMLSMHFFSVMASLNAMASMRVIVFLYQLSILGDCSTIDSLRDLMISQIVLAYNCISVHVNMYISTNGSEASIASRMSTLESCLFLITMNKGSASFGKRRFFYRDLA | soluble |
| MGSDKIHHHHHHMRITEFYVSNFRSLSEVNLKDLGGFNIVVGYNGYGKTNLLSSIFLFVKNLSAGIEKRSIEDRNQEFILLWQGYDVSKPIMIGGKVEFSPEESNKIVGKNQKITLEIINKMRYNNKFVEWNLDTLYINGSPPGEDDLKVAKKLAEYASQAIEYVPIFDQTYFDETLKRMTEMNKSPINLRKYWYDFVNLVAATIPEVKGMEFWDGRRLVLNVYNLPIYIDLAASGFQRVILMLFIIWLSGNKILLIEEPEVNMHPTLQAKIMKLIKNWTDNNILQSFLTTHSPYIVEMAADSYVVMRRVNGNSTAITVKPTPDLRGTISLLNASLSNILFSRIIILTSELAEPSVIVNWLKRLNINVEDNGISIYKVSSDLELQHWLKLKNMLNLDVIFLGLCDKLDMSLKDYCVPLSREVENFYSKQALLEVLRRLGIYPDEKEIRDLGKEENLRWIINVLRKRGIEYEKLRMSIGELITDVDSIEIPKEIEILANKIKSLQATL | not soluble |
| GATNEVNVDAIKQLYMDCKNEADKFDVLTELYGLMTIGSSIIFVATKKTANVLYGKLKSEGHEVSILHGDLQTQERDRLIDDFREGRSKVLITTNVLARGIDIPTVSMVVNYDLPTLANGQADPATYIHRIGRTGRFGRKGVAISFVHDKNSFNILSAIQKYFGDIEMTRVPTDDWDEVEKIVKKVLKD | soluble |
| MSLELEQLTSNSIRPYIPKGTHPVETGKYLISTNEIDRMYQTVLQWIGNRIPGAIIYGRPRLGKTRAITYLMNCLPQDFGNNMPIYHVRCRTYKRPNENSFFEDLLLAVGHSIAIQGKANVKRNRLLKFLVERSDFSGTNKVVFFIDDAQRLVEIHYDWLMDLFNELEQYGITLTTILVGQKELVHQRSAFISGEKFQIVGRFMSQEYQFKGIKTPRDLKICLTGYDEYCEYPINSNWSFTKYFFADSFIRGLRLQNSAEELFQVFVDLRREHGLSQKVEIPMQHITLTVEYALKNFGIDNLDLTTIEKTHWEESIKNSGYIQSELYQTTEGHHHHHH | not soluble |
| MATQTSKNPESVHDFTVKDAKENDVDLSIFKGKVLLIVNVASKCGMTNSNYAEMNQLYEKYKDQGLEILAFPCNQFGEEEPGTNDQITDFVCTRFKSEFPIFDKIDVNGENASPLYRFLKLGKWGIFGDDIQWNFAKFLVNKDGQVVDRYYPTTSPLSLERDIKQLLEIS | soluble |
